Assay results published in the supplement of paper PMC10065799, “High-throughput profiling of sequence recognition by tyrosine kinases and SH2 domains using bacterial peptide display” (eLife, 2023).

Assays:
[1] = test system: AncSZ; test: phosphorylation enrichment, bacterial display (enrichment ratio); higher = better substrate or ligand; peptides without Tyr show the background
[2] = target: EPHB1 (UniProt P54762); test: as above
[3] = target: EPHB2 (UniProt P29323); test: as above
[4] = target: FGFR1 (UniProt P11362); test: as above
Chain of FGFR1 (P11362 whole entry, looked up): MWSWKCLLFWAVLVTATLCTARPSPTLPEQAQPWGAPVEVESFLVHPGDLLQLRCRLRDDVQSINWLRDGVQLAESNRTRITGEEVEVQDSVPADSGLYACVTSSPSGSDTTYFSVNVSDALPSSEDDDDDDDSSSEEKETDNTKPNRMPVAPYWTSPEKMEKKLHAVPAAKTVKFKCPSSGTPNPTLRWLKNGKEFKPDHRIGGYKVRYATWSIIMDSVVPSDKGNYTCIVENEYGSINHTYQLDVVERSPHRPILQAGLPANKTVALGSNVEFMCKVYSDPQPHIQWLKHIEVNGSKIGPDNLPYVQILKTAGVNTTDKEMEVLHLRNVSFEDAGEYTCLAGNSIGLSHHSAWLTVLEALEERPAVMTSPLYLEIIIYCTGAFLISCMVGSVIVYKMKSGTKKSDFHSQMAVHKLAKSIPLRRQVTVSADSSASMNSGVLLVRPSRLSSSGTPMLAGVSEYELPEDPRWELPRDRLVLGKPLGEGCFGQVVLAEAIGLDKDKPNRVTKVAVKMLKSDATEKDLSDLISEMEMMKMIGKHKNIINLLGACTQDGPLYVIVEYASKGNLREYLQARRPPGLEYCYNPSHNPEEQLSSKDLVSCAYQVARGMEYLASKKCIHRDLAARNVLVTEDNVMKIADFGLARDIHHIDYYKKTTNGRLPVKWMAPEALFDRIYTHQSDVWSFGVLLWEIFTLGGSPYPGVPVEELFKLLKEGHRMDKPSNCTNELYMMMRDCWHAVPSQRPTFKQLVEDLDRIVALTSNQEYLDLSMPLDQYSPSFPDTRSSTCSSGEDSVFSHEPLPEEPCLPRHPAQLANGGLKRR

[5] = target: FGFR3 (UniProt P22607); test: as above
Chain of FGFR3 (P22607 whole entry, looked up): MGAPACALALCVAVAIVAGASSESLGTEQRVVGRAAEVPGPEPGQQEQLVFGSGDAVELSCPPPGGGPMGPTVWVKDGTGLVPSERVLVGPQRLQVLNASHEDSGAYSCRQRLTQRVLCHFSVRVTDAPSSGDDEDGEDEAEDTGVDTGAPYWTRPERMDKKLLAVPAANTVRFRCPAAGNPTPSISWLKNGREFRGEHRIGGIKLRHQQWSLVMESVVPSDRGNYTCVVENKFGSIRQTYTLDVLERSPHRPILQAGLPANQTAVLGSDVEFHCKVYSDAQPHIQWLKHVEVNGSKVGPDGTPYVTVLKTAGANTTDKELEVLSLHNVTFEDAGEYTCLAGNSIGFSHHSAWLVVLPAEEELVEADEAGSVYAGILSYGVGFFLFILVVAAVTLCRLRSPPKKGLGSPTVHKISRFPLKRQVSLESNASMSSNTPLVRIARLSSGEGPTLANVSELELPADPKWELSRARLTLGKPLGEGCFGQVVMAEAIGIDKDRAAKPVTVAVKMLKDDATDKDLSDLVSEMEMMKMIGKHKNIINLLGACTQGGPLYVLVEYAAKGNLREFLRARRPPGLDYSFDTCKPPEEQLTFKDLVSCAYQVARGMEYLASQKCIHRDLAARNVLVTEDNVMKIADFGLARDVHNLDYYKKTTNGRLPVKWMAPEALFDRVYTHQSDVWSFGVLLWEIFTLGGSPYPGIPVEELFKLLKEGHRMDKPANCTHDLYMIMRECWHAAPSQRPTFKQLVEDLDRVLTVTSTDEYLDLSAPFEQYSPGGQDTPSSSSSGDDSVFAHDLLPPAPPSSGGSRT

[6] = test system: Fer (mouse); test: as above
[7] = target: Fes (UniProt P07332); test: as above
Chain of Fes (P07332 whole entry, looked up): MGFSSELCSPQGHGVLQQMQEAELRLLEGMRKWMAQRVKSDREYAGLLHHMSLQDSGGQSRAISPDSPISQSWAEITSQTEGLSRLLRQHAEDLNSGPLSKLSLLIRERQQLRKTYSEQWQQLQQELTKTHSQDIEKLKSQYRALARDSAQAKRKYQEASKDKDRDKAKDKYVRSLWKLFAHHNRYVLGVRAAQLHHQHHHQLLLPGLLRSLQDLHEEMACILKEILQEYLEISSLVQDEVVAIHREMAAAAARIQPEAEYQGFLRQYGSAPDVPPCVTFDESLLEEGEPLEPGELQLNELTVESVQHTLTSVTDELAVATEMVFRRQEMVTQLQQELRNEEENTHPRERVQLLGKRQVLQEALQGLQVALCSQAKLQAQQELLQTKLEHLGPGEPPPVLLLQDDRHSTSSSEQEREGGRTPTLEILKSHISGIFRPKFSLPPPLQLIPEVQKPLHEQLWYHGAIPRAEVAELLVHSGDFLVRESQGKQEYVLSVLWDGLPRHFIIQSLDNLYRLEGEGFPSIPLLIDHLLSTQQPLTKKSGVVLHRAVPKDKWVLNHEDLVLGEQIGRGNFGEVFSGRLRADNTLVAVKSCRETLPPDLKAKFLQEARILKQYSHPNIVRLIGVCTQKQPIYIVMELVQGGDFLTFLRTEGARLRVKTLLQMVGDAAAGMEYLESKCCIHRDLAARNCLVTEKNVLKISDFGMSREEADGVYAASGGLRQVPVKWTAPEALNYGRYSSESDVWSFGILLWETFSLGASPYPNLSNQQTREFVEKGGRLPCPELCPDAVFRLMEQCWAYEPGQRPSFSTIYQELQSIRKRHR

[8] = target: Fyn (UniProt P06241); test: as above
Chain of Fyn (P06241 whole entry, looked up): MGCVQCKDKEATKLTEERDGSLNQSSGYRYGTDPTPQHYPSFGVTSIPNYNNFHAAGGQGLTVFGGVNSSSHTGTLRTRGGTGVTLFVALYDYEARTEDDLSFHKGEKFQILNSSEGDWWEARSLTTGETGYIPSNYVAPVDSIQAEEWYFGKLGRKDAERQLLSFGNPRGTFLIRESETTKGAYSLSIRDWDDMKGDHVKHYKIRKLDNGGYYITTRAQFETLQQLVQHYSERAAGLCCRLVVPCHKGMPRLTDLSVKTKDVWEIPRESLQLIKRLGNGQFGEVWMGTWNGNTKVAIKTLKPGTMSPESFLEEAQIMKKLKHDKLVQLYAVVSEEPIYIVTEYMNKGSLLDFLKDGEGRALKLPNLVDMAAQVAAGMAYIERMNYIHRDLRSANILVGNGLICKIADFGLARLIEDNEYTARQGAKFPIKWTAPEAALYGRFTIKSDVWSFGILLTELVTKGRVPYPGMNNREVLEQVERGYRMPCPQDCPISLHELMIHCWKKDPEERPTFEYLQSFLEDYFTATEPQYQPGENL

[9] = target: Hck (UniProt P08631); test: as above
[10] = target: Jak2 (UniProt O60674); test: as above
[11] = target: MERTK (UniProt Q12866); test: as above
Chain of MERTK (Q12866 whole entry, looked up): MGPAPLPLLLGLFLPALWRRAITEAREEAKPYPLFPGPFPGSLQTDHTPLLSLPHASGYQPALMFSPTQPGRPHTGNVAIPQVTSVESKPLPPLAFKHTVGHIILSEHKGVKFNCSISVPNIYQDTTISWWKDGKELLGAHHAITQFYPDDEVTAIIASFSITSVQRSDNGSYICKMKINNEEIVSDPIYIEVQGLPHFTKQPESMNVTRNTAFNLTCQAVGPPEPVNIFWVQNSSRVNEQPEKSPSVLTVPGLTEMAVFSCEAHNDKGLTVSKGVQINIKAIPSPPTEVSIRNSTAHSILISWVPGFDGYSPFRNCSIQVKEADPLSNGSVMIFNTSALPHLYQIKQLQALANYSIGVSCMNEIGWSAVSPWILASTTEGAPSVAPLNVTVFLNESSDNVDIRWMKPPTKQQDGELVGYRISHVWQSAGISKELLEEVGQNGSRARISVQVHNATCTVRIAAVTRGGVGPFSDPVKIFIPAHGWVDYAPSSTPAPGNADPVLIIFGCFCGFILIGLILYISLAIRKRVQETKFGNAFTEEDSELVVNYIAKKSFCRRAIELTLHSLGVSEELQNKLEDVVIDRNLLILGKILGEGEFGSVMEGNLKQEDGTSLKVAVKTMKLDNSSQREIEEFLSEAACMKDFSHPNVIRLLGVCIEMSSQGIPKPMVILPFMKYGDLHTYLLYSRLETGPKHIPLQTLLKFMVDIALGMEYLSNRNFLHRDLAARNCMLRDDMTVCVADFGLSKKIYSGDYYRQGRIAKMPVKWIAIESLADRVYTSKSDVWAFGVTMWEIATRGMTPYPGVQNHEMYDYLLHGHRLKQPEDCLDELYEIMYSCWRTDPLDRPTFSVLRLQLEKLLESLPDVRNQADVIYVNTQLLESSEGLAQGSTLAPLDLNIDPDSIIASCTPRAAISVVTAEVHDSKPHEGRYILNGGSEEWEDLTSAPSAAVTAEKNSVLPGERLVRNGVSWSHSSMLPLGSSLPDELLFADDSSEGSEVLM

[12] = test system: c-Abl (mouse); test: as above
[13] = test system: c-Src; test: as above
[14] = target: Grb2 SH2 (UniProt P62993); test: SH2 binding enrichment of the phosphorylated peptide, bacterial display (enrichment ratio); higher = better substrate or ligand; peptides without Tyr show the background
[15] = target: SHP2-C SH2; test: as above
[16] = target: c-Src SH2; test: as above
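Wherever SH2 binding enrichment of the phosphorylated peptide, bacterial display is given: peptide library displayed on the E. coli surface as eCPX fusions, selected cells deep-sequenced, score is each peptide's frequency after selection divided by its frequency in the input.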
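Wherever phosphorylation enrichment, bacterial display is given: 11-residue human phosphosite peptides and single-mutation variants displayed on the E. coli surface, counted by deep sequencing, each peptide's frequency after selection divided by its frequency in the unselected input library; frequency after pTyr selection over input frequency; kinase dosed for 20-30% of maximal phosphorylation in three min.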

Chain of EPHB2 (P29323 whole entry, looked up): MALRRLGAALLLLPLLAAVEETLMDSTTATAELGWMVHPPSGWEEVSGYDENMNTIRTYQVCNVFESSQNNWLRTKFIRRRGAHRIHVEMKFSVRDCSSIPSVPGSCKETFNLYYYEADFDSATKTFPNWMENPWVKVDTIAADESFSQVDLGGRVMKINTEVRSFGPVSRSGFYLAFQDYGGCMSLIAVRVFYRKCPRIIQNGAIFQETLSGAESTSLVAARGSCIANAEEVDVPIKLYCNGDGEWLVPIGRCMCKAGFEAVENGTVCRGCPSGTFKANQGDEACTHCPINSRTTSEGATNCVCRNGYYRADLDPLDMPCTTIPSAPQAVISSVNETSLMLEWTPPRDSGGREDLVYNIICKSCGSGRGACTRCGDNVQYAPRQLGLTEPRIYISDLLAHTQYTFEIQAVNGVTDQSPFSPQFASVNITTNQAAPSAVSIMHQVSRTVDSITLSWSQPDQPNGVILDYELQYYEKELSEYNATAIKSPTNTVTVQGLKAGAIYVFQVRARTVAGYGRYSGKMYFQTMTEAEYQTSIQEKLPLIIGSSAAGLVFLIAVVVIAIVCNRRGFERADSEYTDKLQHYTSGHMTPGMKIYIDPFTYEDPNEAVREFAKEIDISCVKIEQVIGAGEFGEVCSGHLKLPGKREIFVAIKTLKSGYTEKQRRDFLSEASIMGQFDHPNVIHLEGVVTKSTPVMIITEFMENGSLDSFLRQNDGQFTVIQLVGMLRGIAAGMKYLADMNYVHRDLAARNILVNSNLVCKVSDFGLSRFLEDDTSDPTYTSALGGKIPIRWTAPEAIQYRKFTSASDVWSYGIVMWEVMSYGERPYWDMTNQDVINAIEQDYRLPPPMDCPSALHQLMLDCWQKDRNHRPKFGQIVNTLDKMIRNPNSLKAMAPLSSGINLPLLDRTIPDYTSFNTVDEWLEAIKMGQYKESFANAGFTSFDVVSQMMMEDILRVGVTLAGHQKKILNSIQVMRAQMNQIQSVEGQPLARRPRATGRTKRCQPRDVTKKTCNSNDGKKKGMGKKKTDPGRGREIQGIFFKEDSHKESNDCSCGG

Sequence	phosphorylation enrichment [1]	phosphorylation enrichment [2]	phosphorylation enrichment [3]	phosphorylation enrichment [4]	phosphorylation enrichment [5]	phosphorylation enrichment [6]	phosphorylation enrichment [7]	phosphorylation enrichment [8]	phosphorylation enrichment [9]	phosphorylation enrichment [10]	phosphorylation enrichment [11]	phosphorylation enrichment [12]	phosphorylation enrichment [13]	SH2 binding enrichment [14]	SH2 binding enrichment [15]	SH2 binding enrichment [16]
HFGNNYRDVLQ [MACC1_Y803_YF]	0.851	0.648	0.627	0.711	0.68	0.558	1.72	0.614	0.594	1.06	0.64	0.848	0.65	0.909	2.13	0.472
HGAKVYIDPFT [EPHB4_Y590_T587A]	0.986	1.08	0.975	1.46	0.912	0.715	1.04	0.792	0.792	0.761	0.535	0.831	0.713	0.712	0.668	0.592
HGTKVYIDPFT [EPHB4_Y590]	0.602	0.788	0.66	0.711	0.688	0.426	0.705	0.601	0.628	0.815	1.03	0.725	0.49	1.21	1.62	0.788
HHTDECEFDEL [TGM1_Y134_Y134C_YF]	1.07	0.423	0.426	0.605	0.545	0.463	1.1	0.488	0.586	1.05	0.471	0.858	0.727	1.12	0.628	0.585
HKLSYCEYDFE [BTK_Y40_Y40C]	1.78	0.857	1.14	0.762	1.34	0.687	1.76	1.68	0.746	1.29	0.535	0.871	2.46	1.3	0.68	0.914
HLELNYKEDEY [MME_Y502_Y497H]	1.32	0.562	0.535	0.487	0.611	0.344	0.994	0.514	0.382	1.06	0.396	0.62	0.418	0.692	0.535	0.483
HLQQSNLPRGT [TEX45_Y396_Y396N]	0.639	0.447	0.451	0.491	0.644	0.279	0.757	0.445	0.534	0.689	0.467	0.703	0.42	0.837	0.583	0.748
HNLDYYKKTTN [FGFR3_Y648]	0.829	0.696	0.59	0.694	0.648	0.539	1.2	0.653	0.58	0.632	0.423	0.817	0.373	0.732	0.554	0.591
HNLFSYPTKFE [MYO3A_Y1396_H1400Y_YF]	0.869	0.474	0.507	0.671	0.752	0.562	1.29	0.565	0.684	1.44	0.569	0.881	0.703	0.706	1.56	0.503
HNLYSYPTKYE [MYO3A_Y1396_H1400Y]	2.65	10.6	16.7	0.699	0.683	17	0.958	5.43	8.88	0.606	14.8	2.34	2.62	0.757	0.657	1.31
HNMPIYEGFAL [ACTA1_Y168_V165M_YF]	1.44	24.3	32.9	0.704	0.786	26.7	5.34	21.5	15.6	0.859	14.7	29.2	13.2	0.607	0.847	0.431
HNQDGYSYLSR [LDLR_Y845_P848L]	0.478	0.527	0.889	0.879	0.658	0.522	0.681	0.624	0.793	0.679	0.719	0.551	0.554	0.698	2.08	11.7
HPWPQYTTRAP [FNDC1_Y1281]	0.628	0.316	0.594	0.421	0.54	0.454	0.603	0.554	0.572	0.846	0.546	0.697	0.561	1.12	0.99	0.594
HRERPYGGGGG [FUS_Y526_R521H]	0.487	0.483	0.265	0.553	0.449	0.407	0.714	0.454	0.439	0.386	0.557	0.556	0.523	1.17	1.05	1.18
HSKGIYFVQLE [MGAT4B_Y262_Q257H_YF]	1.87	0.853	0.911	1.38	1.75	0.711	2.53	1.03	1.12	2.27	3.31	1.31	1.65	1.53	1.45	1.08
HSLLQYGGSAN [ANK1_Y624_R619H]	0.579	0.421	0.583	0.316	0.531	0.447	0.481	0.427	0.505	0.394	0.386	0.472	0.357	0.862	0.661	0.367
HSSPVYVGRVV [TGM2_Y219_R214H]	1.85	2.08	1.47	1.37	1.24	1.63	1.97	3	6.86	1	1.5	1.17	1.57	0.806	1.22	0.539
HVIKFYGACSQ [RET_Y791_L790F]	1.5	0.956	0.851	0.871	1.08	0.576	1.75	0.759	0.779	1.3	0.545	1.4	0.564	0.833	0.773	0.546
HVSISYDIPPT [GAB1_Y307]	1.33	0.522	1.18	0.677	1.01	0.732	1.24	0.645	0.644	0.826	6.11	0.735	0.478	0.688	0.548	0.702
HYEFKYVINAI [MAOA_Y268_C266F]	1.75	1.05	0.782	0.471	0.964	0.74	1.72	0.481	0.489	1.55	0.572	1.28	0.536	0.868	0.69	0.582
HYPDVYAWEQL [ALX3_Y181_R183W]	1.14	0.913	0.865	1.19	1.16	13.2	1.31	8.69	4.12	0.847	3.27	0.404	5.25	0.716	0.928	0.723
IDFARYWHGDD [MMP11_Y162]	0.81	0.676	0.504	0.477	0.567	0.799	0.857	0.405	0.463	0.639	0.536	0.592	0.387	0.843	0.878	0.674
IEENGYNTFAS [FGF10_Y161_YF]	0.952	0.478	0.526	0.602	0.614	0.498	1.07	0.451	0.477	0.961	0.506	0.846	0.628	0.749	0.66	1.45
IHADICRWFNI [MARS1_Y344_Y344C]	0.962	0.639	0.546	0.413	0.675	0.464	1.18	0.395	0.497	0.809	0.356	0.697	0.334	0.779	0.633	0.526
IIEDPYFGNDS [ACP1_Y132_YF]	1.59	0.804	0.62	0.695	1.1	0.711	1.62	0.867	0.96	1.45	0.651	1.04	1.74	0.946	0.584	0.541
IIGNGYYFRVF [MYBPC3_Y1135]	1.08	0.628	0.619	0.374	0.79	0.413	1.16	0.327	0.373	1.46	0.318	0.775	0.335	0.852	0.651	0.472
IKAGAYDFPSL [CAMK2A_Y230_P235L]	0.761	0.418	0.493	0.41	0.484	1.03	0.647	0.877	0.382	0.603	5.66	0.541	0.388	0.774	0.626	4.76
IKELTYQTEED [MYH7_Y1852]	1.27	0.591	0.612	0.54	0.773	0.635	1.33	0.579	0.604	1.1	0.441	0.753	0.467	0.879	0.832	0.52
IKIMGYFIRTI [IDS_Y490_S491F]	0.932	0.432	0.561	0.479	0.785	0.547	1.08	0.402	0.497	0.93	0.514	0.813	0.424	1.82	1.5	1.04
